Assay results from the supplement of paper PMC9170038.

System: MS2 coat protein
Test: apparent KD of MS2 coat protein; designed switch direction (-1 OFF switch, 1 ON switch): -1; higher = weaker reporter binding
Summary of the method: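 The apparent KD reported per design is the median over clusters of curve fits to normalised cluster fluorescence. The RNA switches were transcribed on Illumina chips by stalled E. coli RNA polymerase. SNAP-549-labelled MS2 coat protein was titrated from 0.7 or 1.5 nM, doubling up to 3 µM, in Tris-HCl pH 7.5 buffer containing KCl, MgCl2, BSA, DTT, tRNA and Tween-20, with no input, 200 uM small-molecule ligand, or an oligonucleotide input.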

[1] = input ligand: microRNA oligo, concentration not stated
[2] = Eterna round: R95, input ligand: microRNA oligo, concentration not stated

For “GCGGAAAACUUAGGAUAUCAGGGCUGCACAUGAGGAUCACCCAUGUGAUAGCUCUAACGCGGUCCUGAGAAGGGAGAGCCCGGA [Rarasoa] (Eterna round: R96, puzzle: Exclusion NG 2)”, the “apparent KD of MS2 coat protein” value (input ligand: FMN 200 uM) was 94.2 nM, the “apparent KD of MS2 coat protein” value [1] was 43.8 nM and the “apparent KD of MS2 coat protein” value (input ligand: none) was 44.7 nM.

For “GCGGUACAUGAGGAUCACCCAUGUUAGGAUAUUCUACGUCUCUAAUCUGAAACGCAAGGAAGAAGGAGCGUGGG [Eternabot (Original) Solution 21] (Eterna round: R97, puzzle: Exclusion 1)”, the “apparent KD of MS2 coat protein” value (input ligand: FMN 200 uM) was 83.7 nM and the “apparent KD of MS2 coat protein” value (input ligand: none) was 28.2 nM.

With “GCUCGCUGAGGAUAUACUAAAACACGCUCUGGGAGGUCUUGACUUGAGGAUCACCCAAGUAGAAGGCAGUUAAA [Zaesleeran] (Eterna round: R97, puzzle: Exclusion 2)” the “apparent KD of MS2 coat protein” value (input ligand: FMN 200 uM) was 437 nM and the “apparent KD of MS2 coat protein” value (input ligand: none) was 450 nM.

“GCUCGUACGGAGGAUAUAGAUUUCGGAAACCGACUAGAAGGCCGAACAUGAGGAUCACCCAUGUGAUUUAUAUC [Gesozarequ] (puzzle: Exclusion 6)” was tested, and the “apparent KD of MS2 coat protein” value (Eterna round: R95, input ligand: FMN 200 uM) was 23.2 nM, the “apparent KD of MS2 coat protein” value [2] was 18.9 nM and the “apparent KD of MS2 coat protein” value (Eterna round: R95, input ligand: none) was 23.4 nM.

With “GCUCUGCGAGGAUAUACAUGAGGAUCACCCAUGUGCGAGUUACUUGUGAGGUCGGUUGGUAGAAGGCGCGGAGG [Mat - Exclusion 3 - Mod of JL D100] (puzzle: Exclusion 3)” the “apparent KD of MS2 coat protein” value [2] was 77.5 nM.

For “GCUGGUAUAGGAUAUACGUAAGACGUGGUCCACAGUUAAUUACAUGAGGAUCACCCAUGUAGAAGGAUGGAAGC [Eternabot (L2) Solution 95] (Eterna round: R97, puzzle: Exclusion 2)”, the “apparent KD of MS2 coat protein” value (input ligand: FMN 200 uM) was 298 nM and the “apparent KD of MS2 coat protein” value (input ligand: none) was 65.8 nM.

For “GCUGGUCGAGGAUAUACAAUCGUGCUUCGGCACGUAAGGUCACAUGAGGAUCACCCAUGUAGAAGGCGACCAGC [E2/2-A2] (Eterna round: R97, puzzle: Exclusion 2)”, the “apparent KD of MS2 coat protein” value (input ligand: FMN 200 uM) was 175 nM and the “apparent KD of MS2 coat protein” value (input ligand: none) was 30.9 nM.

“GCUGGUCGAGGAUAUACAUGAGGAUCACCCAUGUAGAUCAACCAGCUUCGGCUGGAAUGUAGAAGGCGACCAGC [E3/5-A4] (Eterna round: R97, puzzle: Exclusion 3)” was tested, and the “apparent KD of MS2 coat protein” value (input ligand: FMN 200 uM) was 117 nM and the “apparent KD of MS2 coat protein” value (input ligand: none) was 19.5 nM.

For “GCUGGUCGAGGAUAUACAUGAGGAUCACCCAUGUGGUCACGUGACGAUAGUCACGAAUGUAGAAGGUGACCAGC [E3/3-B1] (Eterna round: R97, puzzle: Exclusion 3)”, the “apparent KD of MS2 coat protein” value (input ligand: FMN 200 uM) was 107 nM and the “apparent KD of MS2 coat protein” value (input ligand: none) was 1760 nM.

In the case of “GCUGGUCGAGGAUAUAUAUGACGUGCUUCGGCACGAAGAUCACAUGAGGAUCACCCAUGUAGAAGGCGACCAGC [E2/8-A1] (Eterna round: R97, puzzle: Exclusion 2)”, the “apparent KD of MS2 coat protein” value (input ligand: FMN 200 uM) was 1480 nM and the “apparent KD of MS2 coat protein” value (input ligand: none) was 156 nM.

With “GCUGUCACCGUUAGGAUAUGUGAUUAAAUAUGAUCGCAGAAGGAACAUGAGGAUCACCCAUGUCGAUCCGUCCG [Eternabot (L1) Solution 36] (Eterna round: R97, puzzle: Brourd's mod of Exclusion 4)” the “apparent KD of MS2 coat protein” value (input ligand: FMN 200 uM) was 34.8 nM and the “apparent KD of MS2 coat protein” value (input ligand: none) was 23.1 nM.

For “GCUUGUAGAGGAUAUACAAGGGCCUUAGCGAAUAACACCGCACAUGAGGAUCACCCAUGUAGAAGGCUACCACC [Tezausesti] (puzzle: Exclusion 2)”, the “apparent KD of MS2 coat protein” value [2] was 15.2 nM.

“GCUUGUAGAGGAUAUACAAGGGCCUUAGCGGAUAACACCGCACAUGAGGAUCACCCAUGUAGAAGGCUACCACC [Veorlace] (puzzle: Exclusion 2)” was tested, and the “apparent KD of MS2 coat protein” value [2] was 16.6 nM.

“GCUUUUGGGCAAGGAUAUCCUGCGCGGUUCUGGUUCGUGUCUGUCACAUGAGGAUCACCCAUGUGGGAGAAGGUGCCUGUGGUG [Design 71] (Eterna round: R96, puzzle: Exclusion NG 2)” was tested, and the “apparent KD of MS2 coat protein” value (input ligand: FMN 200 uM) was 38.1 nM, the “apparent KD of MS2 coat protein” value [1] was 16.9 nM and the “apparent KD of MS2 coat protein” value (input ligand: none) was 23 nM.

In the case of “GGAAAAUGAGGAUAUACAUGUUUGAUACCUCUACGCCCGCAACAUGAGGAUCACCCAUGUAGAAGGCAUGAAAA [Marius] (puzzle: Exclusion 2)”, the “apparent KD of MS2 coat protein” value [2] was 13.9 nM.
